Measurements as given in article PMC2120063 (The Journal of Cell Biology, 1994).

Experiments:
[1] = target: T1, rabbit skeletal muscle actin (rabbit, UniProt P68135 1-377); test: pyrene-actin polymerisation kinetics
[2] = target: T1, rabbit skeletal muscle actin; test: pyrene-actin polymerisation kinetics; remark: listed apart in the source
[3] = target: T1, rabbit skeletal muscle actin; test: co-sedimentation

Binder | Kd [1] [nM] | Kd [2] [nM] | Kd [3] [nM] | stoichiometry N [3]
full-length epitope-tagged recombinant chick cardiac muscle tensin (natural protein) MDFGSVMNQAATPCSPAVNYELPSPGQSITKQVDTPDATRSPRGGQAHRKASRSMSVTAAMESSCELDLVYITERIIAVSYPSTAEEQSFRSNLREVAHMLKSKHGDNYVLFNLSERRHDISKLHPKVLDFGWPDLHTPALEKICSICKAMDTWLNAAAHNVVVLHNKGNRGRLGVVVAAYMHYSNISASADQALDRFAMKRFYEDKVVPVGQPSQKRYIHYFSGLLSGSIKMNNKPLFLHHVIMHGIPNFESKGGCRPFLKIYQAMQPVYTSGIYNVQGDSQTGICITIEPGLLLKGDILLKCYHKKFRSPTRDVIFRVQFHTCAVHDLDIVFGKEDLDEAFRDERFPEYGKVEFVFSYGPEKIQGMEHLENGPSVSVDYNTSDPLIRWDSYENFNIQREDSTEGTWAEPALPGKHLEKEVGHTQGPLDGSLYAKVKKKDSLHGSIGAVNAARLPLSAAPNHVEHTLSVSSDSGNSTASTKTDRTDEPGAPGAPTGHAVLSPEEKRELDRLLVGFGLESAPPMHNHAPGPAPARLPAGPGRHVVPAQVHVNGAGTPLLAERETDILDDELPNQDGHSVGSLGTLSSLDGTTTASEAGFHEAPRVGSLSSLPNGPASYNGAEKMLKEGLYEAEPLSNGAYPYSNQNTLMGHHLRDPLAHLRPSASAQEHLAGYPQRQPASTSPAWLQPPVPQPYLYGYDLPSAHRSQSFPAVGTAKYEANLALPQAPARSTSSREAVQRGLNSWQQQGGSRPPSQLHDGGLESHSPSLSSCSPQPSPLQPMPPHSHSMPEFPRAPSRREIEQSIEALDVLMLDLAPSVHKSQSVPSAATRQDKPAAMLSSLSAQPLSGHYAQPTPQVVQPRSFGTSVGTDPLAKAYSPGPLVPAARSTAEPDYTVHEYRETYTPYSYQPVPEPRSYGSAPASILPLSASYSPAGSQQLLVSSPPSPTAPAQSQLPHKGLESYEDLSRSGEEPLNLEGLVAHRVAGVQSREKSPEESTVPARRRTPSDSHYEKSSPEPGSPRSPTVLSPEVVSTIAANPGGRPKEPHLHSYKEAFEEMESASPSSLTSGGVRSPPGLAKTPLSALGLKPHNPADILLHPVGELEGEAGADSEEEPRSYVESVARTATTGRAGNLPAAQPVGLEVPARNGAFGNSFTVPSPVSTSSPIHSVDGASLRSYPSEGSPHGTVTPPHAVAETAYRSPMVSQTPSAHSSYQTSSPSSFQAGTLGSPYASPDYPDGRAGFQPDPQARQQPQVSVVGVHALPGSPRTLHRTVATNTPPSPGFGRRAANPAVASVPGSPGLGRHTVSPHAPPGSPSLARHQMAAVPPGSPMYGYSSPEERRPTLSRQSSASGYQPPSTPSFPVSPAYYPGTSTPHSSSPDSAAYRQGSPTPQPALPEKRRMSAGERSNSLPNYATVNGKASSPLSSGMSSPSSGSAVAFSHTLPDFSKFSMPDISPETRANVKFVQDTSKYWYKPDISREQAIALLKDREPGAFIIRDSHSFRGAYGLAMKVASPPPTVMQQNKKGDITNELVRHFLIETSPRGVKLKGCPNEPNFGCLSALVYQHSIMPLALPCKLVIPDRDPMEEKKDAASTTNSATDLLKQGAACNVLFINSVEMESLTGPQAISKAVAETLVADPTPTATIVHFKVSAQGITLTDNQRKLFFRRHYPLNTVTFCDLDPQERKWTKTDGSGPAKLFGFVARKQGSTTDNVCHLFAELDPDQPAAAIVNFVSRVMLGSGQKR | 10 to 100 | ~20 | 100 | 11 actin subunits per tensin
GST-tensin p29(1-263) (domain or fragment) MDFGSVMNQAATPCSPAVNYELPSPGQSITKQVDTPDATRSPRGGQAHRKASRSMSVTAAMESSCELDLVYITERIIAVSYPSTAEEQSFRSNLREVAHMLKSKHGDNYVLFNLSERRHDISKLHPKVLDFGWPDLHTPALEKICSICKAMDTWLNAAAHNVVVLHNKGNRGRLGVVVAAYMHYSNISASADQALDRFAMKRFYEDKVVPVGQPSQKRYIHYFSGLLSGSIKMNNKPLFLHHVIMHGIPNFESKGGCRPFLKI | – | – | – | 2 to 4 actin subunits per tensin fragment
